Assay results as given in patent US20180280551A1 (published 2018).
Values belong to the binder of their own block, whether it stands above or below them.

Key:
[1] = target: T1, CD11b (mouse), on the CD11b+ mutuDC dendritic cell line and on cells of lymphoid organs (mouse, UniProt P05555 17-1153); assay: FACS, CD11b+ mutuDC dendritic cell line stained in vitro with Alexa647-labeled DC13 monomer or dimer; reference DC13 monomer
T1 construct: whole, on cells; Its partner chain on the cell surface is not mentioned
Source text: Cells were harvested and analyzed with FACS.
Four sortase substrates were designed and synthesized for production of dimers or PEGylated VHHs (FIG. 1). The substrates either contain two bioorthogonal handles or a handle and a flourophore. The Alexa647-labeled substrate was designed such that the reaction products could be used in FACS experiments to estimate relative in vitro binding affinities. […] The dimers were produced as exemplified in FIG. 2. For DC8 (anti Class II), splenocytes were stained with different concentrations of monomers and dimers and analyzed by FACS. For DC13 (anti CD11b), the CD11b⁺ mutuDC dendritic cell line was used. For Class II MHC and CD11b, VHH dimers bind approximately 3.3 and 2.3-fold better than their corresponding monomers respectively (FIG. 3). The in vivo binding characteristics of the VHH dimers versus monomers were evaluated. Due to the more abundant expression of Class II MHC molecules on splenocytes compared to that of CD11b, the in vivo binding affinity for anti-Class II dimers was explored. Mice were injected i.v. with equal amounts of monomers and dimers (0.25 nmol) of DC8. 2 h p.i., mice were euthanized and lymphoid organs were excised for examination. Monomers and dimers yielded different staining patterns (FIG. 3B), with the dimer showing interspersed yet more pronounced staining than the monomer, corroborating the FACS results. […]

[2] = target: Class II MHC (mouse), on splenocytes and lymphoid organ cells (mouse); assay: FACS, splenocytes stained in vitro with different concentrations of Alexa647-labeled DC8 monomer or dimer; reference DC8 monomer
[3] = target: Class II MHC (mouse), on splenocytes and lymphoid organ cells (mouse); assay: FACS of spleen cells harvested 3 h after i.v. injection of Alexa647-labeled VHH into B6 mice; reference non-PEGylated DC8-Alexa647
[4] = target: Class II MHC (mouse), on splenocytes and lymphoid organ cells (mouse); assay: FACS of spleen cells harvested 3 h after i.v. injection of Alexa647-labeled VHH into B6 mice; reference non-PEGylated DC8-Alexa647; no staining in the spleen of an MHC II-/- mouse

Chain of Class II MHC (mouse), on splenocytes and lymphoid organ cells (mouse) (P14434 24-256, chain 1 of 2): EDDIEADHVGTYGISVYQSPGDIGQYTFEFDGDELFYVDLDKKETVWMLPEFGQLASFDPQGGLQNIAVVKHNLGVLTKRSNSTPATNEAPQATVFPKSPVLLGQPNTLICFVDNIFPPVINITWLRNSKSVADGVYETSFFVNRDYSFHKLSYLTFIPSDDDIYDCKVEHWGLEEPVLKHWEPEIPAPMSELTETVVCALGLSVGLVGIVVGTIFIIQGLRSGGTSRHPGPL
Chain of Class II MHC (mouse), on splenocytes and lymphoid organ cells (mouse) (P14483 28-265, chain 2 of 2, further chain): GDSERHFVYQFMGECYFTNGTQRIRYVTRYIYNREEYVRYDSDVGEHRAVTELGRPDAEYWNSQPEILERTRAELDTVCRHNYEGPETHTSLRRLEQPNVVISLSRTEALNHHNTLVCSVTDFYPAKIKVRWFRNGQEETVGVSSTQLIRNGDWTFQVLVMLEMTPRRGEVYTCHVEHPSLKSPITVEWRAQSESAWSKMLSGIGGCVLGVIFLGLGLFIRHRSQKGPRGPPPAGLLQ
T1 sequence (P05555 17-1153): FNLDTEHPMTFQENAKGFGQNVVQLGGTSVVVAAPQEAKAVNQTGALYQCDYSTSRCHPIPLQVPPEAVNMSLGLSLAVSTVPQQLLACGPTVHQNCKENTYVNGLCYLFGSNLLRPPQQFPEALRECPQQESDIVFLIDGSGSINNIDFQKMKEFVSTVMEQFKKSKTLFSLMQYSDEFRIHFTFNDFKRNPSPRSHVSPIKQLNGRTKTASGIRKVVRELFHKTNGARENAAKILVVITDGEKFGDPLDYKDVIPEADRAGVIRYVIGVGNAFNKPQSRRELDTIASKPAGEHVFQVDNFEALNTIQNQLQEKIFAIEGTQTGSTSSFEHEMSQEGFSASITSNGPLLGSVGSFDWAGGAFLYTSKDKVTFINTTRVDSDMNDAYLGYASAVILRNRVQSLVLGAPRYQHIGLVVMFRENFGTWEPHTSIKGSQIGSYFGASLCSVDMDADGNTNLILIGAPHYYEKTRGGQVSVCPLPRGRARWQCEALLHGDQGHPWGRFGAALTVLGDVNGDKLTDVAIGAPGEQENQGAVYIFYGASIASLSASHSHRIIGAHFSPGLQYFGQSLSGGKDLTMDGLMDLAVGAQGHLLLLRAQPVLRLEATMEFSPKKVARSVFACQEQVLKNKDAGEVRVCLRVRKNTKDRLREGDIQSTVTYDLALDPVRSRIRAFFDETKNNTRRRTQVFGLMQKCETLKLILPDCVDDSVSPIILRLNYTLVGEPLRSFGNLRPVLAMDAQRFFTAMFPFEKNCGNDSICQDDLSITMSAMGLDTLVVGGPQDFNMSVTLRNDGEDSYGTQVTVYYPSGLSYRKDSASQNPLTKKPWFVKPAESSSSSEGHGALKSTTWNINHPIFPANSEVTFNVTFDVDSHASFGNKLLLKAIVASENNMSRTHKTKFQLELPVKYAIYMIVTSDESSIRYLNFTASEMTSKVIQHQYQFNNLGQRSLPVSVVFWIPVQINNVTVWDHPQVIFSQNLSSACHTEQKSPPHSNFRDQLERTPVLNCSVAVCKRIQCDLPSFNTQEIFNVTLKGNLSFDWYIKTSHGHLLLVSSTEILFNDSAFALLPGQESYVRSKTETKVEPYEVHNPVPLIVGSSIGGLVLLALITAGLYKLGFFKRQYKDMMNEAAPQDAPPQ

fold better binding than the corresponding monomer [1]: ~2.3 fold
B1: DC13-dimer (bivalent DC13, two DC13 VHHs joined through their C-termini) (VHH)
VHH: QVQLQESGGGLVQTGGSLRLSCAASGVDFNWYSMGWFRQAPGKEREYVASIDQGGELDYAISVKGRFTISRDNAKNMVYLQMNSLKPEDTAVYYCAADFSGRGASNPDKYKYWGQGTQVTVSS
modifications: Each chain is sortagged at LPET. One carries (Gly)3-Cys(maleimide-DBCO), the other (Gly)3-PEG12-Cys(X)-PEG5-Lys(azide), where X is Alexa647, Texas Red or TCO/18F-tetrazine. The two chains are joined C-terminus to C-terminus by DBCO-azide click chemistry.
notes: This is a chemical C-to-C dimer; also called anti CD11b dimer; 18F-DC13 dimer

fold better binding than the corresponding monomer [2]: 3.3 fold
B2: DC8-dimer (bivalent DC8, two DC8 VHHs joined through their C-termini) (VHH)
VHH: QVQLQESGGGLVQPGGSLRLSCTASGFTFSTYYMSWVRKAPGKGPEWVSVMNSSGGDTRYADFVKGRFTISRDNAKNTLYLQMNSLKPEDTALYYCAQGRSDIYPTFTRGQGTQVTVSS
modifications: Each chain is sortagged at LPET. One carries (Gly)3-Cys(maleimide-DBCO), the other (Gly)3-PEG12-Cys(X)-PEG5-Lys(azide), where X is Alexa647, Texas Red or TCO/18F-tetrazine. The two chains are joined C-terminus to C-terminus by DBCO-azide click chemistry.

increase in staining versus non-PEGylated DC8 [3]: 30%
B3: DC8-Alexa647-PEG-5 kDa (PEGylated DC8, 5 kDa PEG) (VHH)
VHH: QVQLQESGGGLVQPGGSLRLSCTASGFTFSTYYMSWVRKAPGKGPEWVSVMNSSGGDTRYADFVKGRFTISRDNAKNTLYLQMNSLKPEDTALYYCAQGRSDIYPTFTRGQGTQVTVSS
modifications: Sortagged at LPET with (Gly)3-PEG12-Cys(X)-PEG5-Lys(azide), where X is Alexa647, Texas Red or TCO/18F-tetrazine. DBCO-PEG 5 kDa is clicked onto the azide.

increase in staining versus non-PEGylated DC8 [3]: 100%
B4: DC8-Alexa647-PEG-10 kDa (PEGylated DC8, 10 kDa PEG) (VHH)
VHH: QVQLQESGGGLVQPGGSLRLSCTASGFTFSTYYMSWVRKAPGKGPEWVSVMNSSGGDTRYADFVKGRFTISRDNAKNTLYLQMNSLKPEDTALYYCAQGRSDIYPTFTRGQGTQVTVSS
modifications: Sortagged at LPET with (Gly)3-PEG12-Cys(X)-PEG5-Lys(azide), where X is Alexa647, Texas Red or TCO/18F-tetrazine. DBCO-PEG 10 kDa is clicked onto the azide.

increase in staining versus non-PEGylated DC8 [4]: 220%
B5: DC8-Alexa647-PEG-20 kDa (PEGylated DC8, 20 kDa PEG) (VHH)
VHH: QVQLQESGGGLVQPGGSLRLSCTASGFTFSTYYMSWVRKAPGKGPEWVSVMNSSGGDTRYADFVKGRFTISRDNAKNTLYLQMNSLKPEDTALYYCAQGRSDIYPTFTRGQGTQVTVSS
modifications: Sortagged at LPET with (Gly)3-PEG12-Cys(X)-PEG5-Lys(azide), where X is Alexa647, Texas Red or TCO/18F-tetrazine. DBCO-PEG 20 kDa is clicked onto the azide.
